Key:
[1] = biological target: T1, second DNA polymerase-constituting protein (translation product of ORF4)
T1 chain: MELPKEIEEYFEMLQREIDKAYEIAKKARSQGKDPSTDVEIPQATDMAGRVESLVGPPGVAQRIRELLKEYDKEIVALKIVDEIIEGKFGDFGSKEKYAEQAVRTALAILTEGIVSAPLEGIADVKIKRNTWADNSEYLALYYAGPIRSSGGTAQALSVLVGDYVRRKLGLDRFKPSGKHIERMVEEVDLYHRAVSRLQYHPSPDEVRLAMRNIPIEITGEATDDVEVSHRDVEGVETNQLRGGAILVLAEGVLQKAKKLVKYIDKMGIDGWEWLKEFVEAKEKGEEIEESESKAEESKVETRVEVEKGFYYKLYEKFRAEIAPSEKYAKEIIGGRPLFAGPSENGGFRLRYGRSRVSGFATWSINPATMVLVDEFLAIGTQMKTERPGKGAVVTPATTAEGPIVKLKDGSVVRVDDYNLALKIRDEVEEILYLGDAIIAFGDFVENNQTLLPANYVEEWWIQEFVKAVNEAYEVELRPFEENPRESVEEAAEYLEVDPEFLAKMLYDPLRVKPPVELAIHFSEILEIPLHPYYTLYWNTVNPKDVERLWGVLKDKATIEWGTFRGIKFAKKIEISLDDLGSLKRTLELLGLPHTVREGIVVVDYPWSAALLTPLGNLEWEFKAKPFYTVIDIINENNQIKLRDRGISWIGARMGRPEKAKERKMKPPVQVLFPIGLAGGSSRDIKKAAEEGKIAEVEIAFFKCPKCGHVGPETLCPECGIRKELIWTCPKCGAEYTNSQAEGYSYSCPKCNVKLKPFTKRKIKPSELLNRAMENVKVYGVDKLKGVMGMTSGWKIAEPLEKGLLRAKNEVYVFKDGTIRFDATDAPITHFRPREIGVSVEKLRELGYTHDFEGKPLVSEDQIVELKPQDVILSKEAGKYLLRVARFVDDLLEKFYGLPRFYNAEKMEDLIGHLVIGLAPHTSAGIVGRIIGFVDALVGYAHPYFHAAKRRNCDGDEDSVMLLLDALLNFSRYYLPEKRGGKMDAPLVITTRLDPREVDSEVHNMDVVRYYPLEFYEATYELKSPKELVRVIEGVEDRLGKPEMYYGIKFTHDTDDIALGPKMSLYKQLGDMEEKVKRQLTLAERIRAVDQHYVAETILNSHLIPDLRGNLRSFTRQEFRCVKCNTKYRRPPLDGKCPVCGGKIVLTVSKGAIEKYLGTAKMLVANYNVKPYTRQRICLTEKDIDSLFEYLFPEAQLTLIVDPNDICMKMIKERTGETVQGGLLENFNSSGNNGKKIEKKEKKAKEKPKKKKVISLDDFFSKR

[2] = biological target: T2, second DNA polymerase-constituting protein (translation product of ORF4) (Pyrococcus furiosus, UniProt P81409 1-1263); test: gel filtration (Superose 6) of the co-expressed, purified polymerase; activity peaks at about 385 kDa and about 220 kDa
T2 construct: Subunit of the two-protein DNA polymerase from Pyrococcus furiosus DSM3638; Expressed in E. coli, either together with ORF3 from pFU1001 or alone from pFU-ORF4; About 140,000 Da on SDS-PAGE; also called ORF4 translation product; ORF4-derived translation product
T2 sequence: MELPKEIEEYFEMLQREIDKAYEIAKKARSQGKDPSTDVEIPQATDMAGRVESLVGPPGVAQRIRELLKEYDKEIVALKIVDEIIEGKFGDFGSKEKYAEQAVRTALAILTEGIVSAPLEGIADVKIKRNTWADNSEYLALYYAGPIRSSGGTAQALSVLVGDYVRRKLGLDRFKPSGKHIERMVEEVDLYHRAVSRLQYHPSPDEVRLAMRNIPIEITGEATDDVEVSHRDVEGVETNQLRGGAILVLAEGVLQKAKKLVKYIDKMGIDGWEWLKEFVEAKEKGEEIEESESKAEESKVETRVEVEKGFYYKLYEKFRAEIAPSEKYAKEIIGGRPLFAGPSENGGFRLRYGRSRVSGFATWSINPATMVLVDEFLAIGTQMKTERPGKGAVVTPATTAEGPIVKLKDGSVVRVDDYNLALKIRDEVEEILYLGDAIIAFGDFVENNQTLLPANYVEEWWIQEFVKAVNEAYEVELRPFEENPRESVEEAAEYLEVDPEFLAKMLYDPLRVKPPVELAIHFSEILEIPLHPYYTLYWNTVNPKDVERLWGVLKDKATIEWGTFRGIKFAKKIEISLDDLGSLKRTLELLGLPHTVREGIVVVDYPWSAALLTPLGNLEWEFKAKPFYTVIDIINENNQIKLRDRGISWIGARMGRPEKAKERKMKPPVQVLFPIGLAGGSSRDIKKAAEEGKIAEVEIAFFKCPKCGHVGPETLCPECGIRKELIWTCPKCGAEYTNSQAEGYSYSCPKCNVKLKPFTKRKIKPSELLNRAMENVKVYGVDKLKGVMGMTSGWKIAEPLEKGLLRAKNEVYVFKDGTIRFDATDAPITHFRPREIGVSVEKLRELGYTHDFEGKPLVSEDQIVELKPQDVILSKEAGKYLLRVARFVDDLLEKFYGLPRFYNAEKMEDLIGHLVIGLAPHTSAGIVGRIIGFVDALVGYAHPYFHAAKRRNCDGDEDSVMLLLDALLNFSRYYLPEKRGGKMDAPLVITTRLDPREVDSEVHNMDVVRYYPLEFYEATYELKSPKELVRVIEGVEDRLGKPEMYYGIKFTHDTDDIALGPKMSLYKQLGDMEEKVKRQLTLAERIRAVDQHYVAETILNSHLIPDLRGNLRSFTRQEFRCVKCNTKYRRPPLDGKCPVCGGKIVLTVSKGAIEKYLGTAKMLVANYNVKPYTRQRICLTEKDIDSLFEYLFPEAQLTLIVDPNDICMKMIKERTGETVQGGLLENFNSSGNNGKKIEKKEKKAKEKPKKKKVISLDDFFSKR
Experimental: Ten milliliters of an enzyme solution obtained by collecting as an active fraction was desalted and concentrated by ultrafiltration, and dissolved in buffer A+150 mM NaCl to yield 3.5 ml of an enzyme solution. The resulting enzyme solution was then applied to a Hi Trap Heparin column (manufactured by Pharmacia), previously equilibrated with the same buffer. A chromatogram was developed on a linear concentration gradient from 150 to 650 mM NaCl using an FPLC system, to yield an active fraction eluted at 400 mM NaCl. Five milliliters of this fraction was concentrated to 120 µl of a solution including 50 mM potassium phosphate, pH 6.5, 2 mM 2-mercaptoethanol, and 75 mM NaCl by repeating desalting and concentration using ultrafiltration. The resulting concentrated solution was then applied to a gel filtration column of Superose 6 (manufactured by Pharmacia), previously equilibrated with the same buffer, and eluted with the same buffer. As a result, a fraction having a DNA polymerase activity was eluted at positions corresponding to retention times of 34.7 minutes and 38.3 minutes. […] These molecular weights corresponded to a complex formed by the translation product of ORF3 and the translation product of ORF4 in a molar ratio of 1:2 and another complex formed by the above translation products in a molar ratio of 1:1, respectively. […]

binding result [2]: binds
B1: first DNA polymerase-constituting protein (translation product of ORF3) (enzyme)
chain: MDEFVKSLLKANYLITPSAYYLLREYYEKGEFSIVELVKFARSRESYIITDALATEFLKVKGLEPILPVETKGGFVSTGESQKEQSYEESFGTKEEISQEIKEGESFISTGSEPLEEELNSIGIEEIGANEELVSNGNDNGGEAIVFDKYGYPMVYAPEEIEVEEKEYSKYEDLTIPMNPDFNYVEIKEDYDVVFDVRNVKLKPPKVKNGNGKEGEIIVEAYASLFRSRLKKLRKILRENPELDNVVDIGKLKYVKEDETVTIIGLVNSKREVNKGLIFEIEDLTGKVKVFLPKDSEDYREAFKVLPDAVVAFKGVYSKRGILYANKFYLPDVPLYRRQKPPLEEKVYAILISDIHVGSKEFCENAFIKFLEWLNGNVETKEEEEIVSRVKYLIIAGDVVDGVGVYPGQYADLTIPDIFDQYEALANLLSHVPKHITMFIAPGNHDAARQAIPQPEFYKEYAKPIYKLKNAVIISNPAVIRLHGRDFLIAHGRGIEDVVGSVPGLTHHKPGLPMVELLKMRHVAPMFGGKVPIAPDPEDLLVIEEVPDVVHMGHVHVYDAVVYRGVQLVNSATWQAQTEFQKMVNIVPTPAKVPVVDIDTAKVVKVLDFSGWC
notes: Subunit of the two-protein DNA polymerase from Pyrococcus furiosus DSM3638; Expressed in E. coli, either together with ORF4 from pFU1001 or alone from pFU-ORF3; About 90,000 Da on SDS-PAGE; also called ORF3 translation product; ORF3-derived translation product
thermostable DNA polymerase activity [1]: although neither of the ORF translation products thus purified exhibited the DNA polymerase activity when assayed alone, thermostable DNA polymerase activity was exhibited when they were mixed together

Reference: patent publication US6395526B1, “DNA polymerase” (Takara Shuzo Co., Ltd., priority 1995, dated 2002)
